Measurements: the supplement of paper PMC9732359
± gives the uncertainty stated by the source.

Assay: protein stability index of a GFP-peptide fusion (yeast GPS) (PSI 1-4); higher = more stable; sorted into four equal gates, so the index is relative within each strain
In short: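 Tiled 17-residue peptides from yeast proteins were fused downstream of GFP on a plasmid that also expresses Cherry, and the pooled library was carried in yeast. Mid-log cultures grown in leucine-free medium were sorted into four equal gates by GFP/Cherry fluorescence ratio. Plasmids from each gate were PCR-amplified and Illumina-sequenced, and reads were assigned to strains by barcodes. Each peptide's protein stability index is the sum, over gates, of the gate's read frequency multiplied by its gate number.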

Sequence	protein stability index (doa10∆)	protein stability index (pdr5∆)	protein stability index (san1∆)	protein stability index (ubr1∆)
AETIILSSAGKNSSVSS [SRB5]	1.65 ± 0.063	2.17 ± 0.051	2.06 ± 0.083	1.89 ± 0.075
AFAFCIPVYCFSHPAHQ [YCG1]	1.64 ± 0.045	1.81 ± 0.044	1.76 ± 0.059	1.81 ± 0.045
VTNSPLFQTIEKLINNS [ECM29]	2.73 ± 0.054	2.85 ± 0.058	2.76 ± 0.085	2.92 ± 0.066
RKINLFYLYMLVQKFGG [SWI1]	1.59 ± 0.099	1.23 ± 0.048	1.16 ± 0.18	1.08 ± 0.072
LPIYDSLMSSQNKLFYI [SIR3]	2.15 ± 0.14	2.01 ± 0.14		1.38 ± 0.093
NIDYQKGLLIWRLLFID [GRR1]	1.9 ± 0.06	1.28 ± 0.063	1.22 ± 0.2	1.45 ± 0.068
LVLADAFDIELSEFGIK [YCS4]	2.92 ± 0.052	3.06 ± 0.057	2.9 ± 0.068	2.89 ± 0.046
LYTLAQETEGTNRHTLA [SIR3]	2.73 ± 0.077	2.09 ± 0.072	2.2 ± 0.084	2.52 ± 0.059
AQFRVPRYHSKNSFQQA [SWP82]	2.5 ± 0.075	2.57 ± 0.065	2.37 ± 0.083	2.62 ± 0.047
ITSIMDDLALPYQHPPN [ITC1]	3.17 ± 0.084	3.34 ± 0.076	3.08 ± 0.078	3.22 ± 0.048
VRPSISFNESQRGEDDL [RPO21]	2.49 ± 0.078	2.81 ± 0.088	2.75 ± 0.093	2.68 ± 0.083
VTEETTKQIQSVRIDGR [SIR4]	2.31 ± 0.086	3.06 ± 0.077	2.83 ± 0.066	2.12 ± 0.074
KKVLEIDFFKTDDSFED [BRN1]	2.09 ± 0.041	2.08 ± 0.055	2.46 ± 0.058	2.18 ± 0.042
TNSVRLFEVNPSQTLFS [SRP21]	2.65 ± 0.09	2.51 ± 0.078	2.2 ± 0.073	2.56 ± 0.047
TGYPDEPPAGVALPPGS [CYT1]	2.84 ± 0.13	2.92 ± 0.11	2.65 ± 0.11	2.95 ± 0.067
FQDTLYKKIPLLGPTLE [QCR10]	2.84 ± 0.13	2.94 ± 0.11	2.47 ± 0.18	2.95 ± 0.1
QRYVKSVKSVKFPTRKI [RPC34]			3.26 ± 0.11	
VDLWSVGCIFAELIGLQ [SSN3]	3.18 ± 0.097	3.16 ± 0.13	3.35 ± 0.036	3.17 ± 0.12
LADDLITKMLASDESLL [RPN2]	1.94 ± 0.11	2.29 ± 0.14	1.86 ± 0.14	
FLQHPDEEYPVKVKVSY [PRP8]	3.24 ± 0.083	3.18 ± 0.11	3.21 ± 0.082	2.63 ± 0.063
TTQIDLFRIFSMSEEFK [BRR2]	2.4 ± 0.14	3.12 ± 0.1	2.49 ± 0.23	3.12 ± 0.073
QQQQQQQQQQQQQGQIP [SNF5]	2.729 ± 0.023	2.79 ± 0.023	2.75 ± 0.022	2.826 ± 0.02
DYKTAFSYFFESFESYH [RPN6]	2.37 ± 0.058	2.77 ± 0.065	2.59 ± 0.067	2.55 ± 0.033
ISKLFLRGDSVIVVLKT [SMD2]	2.87 ± 0.16	2.89 ± 0.2		
LGSKKELGISLEHPYGK [SNU114]	3.08 ± 0.11	2.99 ± 0.13	3.1 ± 0.15	3.28 ± 0.088
YVESDEDDTQIVTGNLV [IRR1]	3.47 ± 0.15	3.47 ± 0.12	3.08 ± 0.08	3.26 ± 0.076
IEVTIGIDQYSFNVKEN [AAR2]	2.67 ± 0.053	2.75 ± 0.05	2.58 ± 0.047	2.76 ± 0.056
RRVPKELAVENPLAKTM [SEC65]	2.99 ± 0.052	2.93 ± 0.042	2.47 ± 0.054	1.69 ± 0.026

Sequence	protein stability index (doa10∆)	protein stability index (pdr5∆)	protein stability index (san1∆)	protein stability index (ubr1∆)
RLGDLGVIDDSFDVAIS [SMC4]	2.85 ± 0.14	2 ± 0.14	1.23 ± 0.25	1.98 ± 0.067
VPLSDNAIIEANLGKYG [RPL7A]	2.29 ± 0.073	2.25 ± 0.074	2.45 ± 0.074	2.28 ± 0.075
KEDEPVVARRSNSANVS [ITC1]	3.07 ± 0.064	3.06 ± 0.068	2.57 ± 0.048	2.4 ± 0.05
NGEEDEVALFSQKAKLM [YLR335W/NUP2]	1.16 ± 0.17	1.16 ± 0.13		1.17 ± 0.094
KIGPLGLSPKKVGEDIA [RPL12A]	3.3 ± 0.16	3.2 ± 0.18	3.27 ± 0.2	3.38 ± 0.24
TGGLFGAKPAGSTGGLG [YGL172W/NUP49]	3.39 ± 0.13	3.42 ± 0.24	3.23 ± 0.1	3.54 ± 0.07
SGEPIIAATQDFITGSY [RPO31]	3.36 ± 0.1	3.3 ± 0.095	3.13 ± 0.12	3.18 ± 0.039
SIRRQDYINELSNSNRF [REC8]	2.82 ± 0.17	3.21 ± 0.12	3.4 ± 0.092	3.2 ± 0.12
PITASTSRVFAKIISKA [YML103C/NUP188]		3.02 ± 0.14	2.53 ± 0.21	
FSKFERSKSSHKNERRV [SKI6]	3.16 ± 0.082	3.16 ± 0.08	3 ± 0.064	3.25 ± 0.07
FLKERLMEASDAFRVHI [RPB2]	1.66 ± 0.073	1.7 ± 0.12	2 ± 0.15	1.74 ± 0.1
SRHFASYANLPGTITHG [FAS1]	2.75 ± 0.059	2.82 ± 0.055	2.57 ± 0.055	2.71 ± 0.039
TPYNIDRLTQLVRNGPN [RPO21]	3.05 ± 0.12	3.19 ± 0.13	3.17 ± 0.076	3.18 ± 0.2
PIPIPAFADRLGQYVQA [PRE10]	2.21 ± 0.08	1.95 ± 0.062	1.75 ± 0.11	2.07 ± 0.097
NPYSSYVSQIRKHKRVS [YAR002W/NUP60]	2.23 ± 0.081	1.88 ± 0.05	2.85 ± 0.049	2.38 ± 0.067
IGTKRFDSEKSGDREVQ [RPT5]	3.15 ± 0.19	3.51 ± 0.2	2.8 ± 0.26	3.41 ± 0.12
LNQLDGFETSKNIKIIM [RPT6]	2.39 ± 0.25	2.62 ± 0.22	2.74 ± 0.14	2.7 ± 0.18
LIKDNSAMVTTAAAADI [SRB2]		1.78 ± 0.29		
NSEYLKRRVTNLEFNYT [SMC2]	2.38 ± 0.066	2.27 ± 0.1	2.5 ± 0.091	2.49 ± 0.084
NALHTERLHELKKLQSD [SMC1]	3.59 ± 0.078	3.38 ± 0.12	3.18 ± 0.095	3.48 ± 0.1
DFKTDVDEPMTSAVELG [YJL039C/NUP192]	2.17 ± 0.073	2.28 ± 0.068	2.54 ± 0.13	2.85 ± 0.06
NVIITGSTSLIEGMEQR [ARP7]	1.75 ± 0.06	2.49 ± 0.075	2.27 ± 0.065	2.13 ± 0.077
SGRCDGYILEGEELAFY [RPS8A]	3.32 ± 0.12	3.44 ± 0.12	3.29 ± 0.093	3.36 ± 0.074
LSDNAKTLHSQMMSKGI [RPC34]	3.19 ± 0.18	3.32 ± 0.098	3.26 ± 0.071	3.11 ± 0.056
QEDFEVVEEFTPVVLAT [RPS5]	3.1 ± 0.091	2.45 ± 0.059	2.3 ± 0.046	2.31 ± 0.042
NTEEVNRLEKEQSVKTQ [LIN1]	2.21 ± 0.2			1.74 ± 0.27
NNKILEKCKEINVETVY [BRR2]	1.73 ± 0.06	2 ± 0.062	1.78 ± 0.19	2.06 ± 0.067
